Results published in paper PMC11921375, “Phenanthrene degradation by a flavoprotein monooxygenase from Phanerodontia chrysosporium” (Applied and Environmental Microbiology, 2025).
Each block holds one molecule with its values, some of them ahead of it.

Tests used:
[1] = system: T1, FPMO11 (flavoprotein monooxygenase 11); assay: NAD(P)H oxidation at […] nm, initial velocity; type: biochemical, Phanerodontia chrysosporium; details: apparent, 50 mM HEPES-NaOH pH 7.0, 30°C
T1 construct: full-length, C-terminal 6xHis, pET21a, E. coli BL21; FAD flavoprotein

[2] = molecular target: T2, NahG (salicylate 1-monooxygenase) (Pseudomonas putida, UniProt P23262); assay: NAD(P)H oxidation at […] nm, initial velocity; type: biochemical; details: apparent; co-substrate NADH varied, aromatic substrate not stated; 50 mM HEPES pH 8.0, 30°C
T2 construct: full-length synthetic gene, C-terminal 6xHis, pET21a, E. coli BL21
T2 sequence (P23262 2-434): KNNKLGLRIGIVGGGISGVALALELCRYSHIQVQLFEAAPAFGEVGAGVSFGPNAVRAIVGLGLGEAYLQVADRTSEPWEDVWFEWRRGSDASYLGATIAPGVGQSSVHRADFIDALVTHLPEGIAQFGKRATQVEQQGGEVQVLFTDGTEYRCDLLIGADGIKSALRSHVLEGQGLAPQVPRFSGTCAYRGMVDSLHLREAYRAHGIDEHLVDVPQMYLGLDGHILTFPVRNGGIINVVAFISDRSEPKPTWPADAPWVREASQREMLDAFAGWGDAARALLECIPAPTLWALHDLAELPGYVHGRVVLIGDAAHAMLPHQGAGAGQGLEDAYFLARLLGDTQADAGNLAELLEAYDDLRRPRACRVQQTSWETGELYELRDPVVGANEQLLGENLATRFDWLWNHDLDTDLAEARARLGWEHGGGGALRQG

[3] = system: T3, IDD2 (intradiol dioxygenase 2); assay: O2 consumption, Clark electrode; Michaelis-Menten fit; type: biochemical, Phanerodontia chrysosporium; details: apparent; 50 mM Tris-HCl pH 8.0, air-saturated, superoxide dismutase added
T3 construct: recombinant, E. coli

[4] = system: T4, IDD1 (intradiol dioxygenase 1); assay: as above; type: biochemical, Phanerodontia chrysosporium; details: apparent; 50 mM Tris-HCl pH 8.0, air-saturated, superoxide dismutase added
T4 construct: recombinant, E. coli

[5] = substrate: O=C(O)c1cc(O)ccc1O; assay: purified protein; details: apparent, NAD(P)H co-substrate (NADH in results, NADPH in methods), 50 mM HEPES pH 8.0, 30°C
[6] = substrate: NC(=O)C1=CN([C@@H]2O[C@H](COP(=O)(O)OP(=O)(O)OC[C@H]3O[C@@H](n4cnc5c(N)ncnc54)[C@H](OP(=O)(O)O)[C@@H]3O)[C@@H](O)[C@H]2O)C=CC1; assay: purified protein; type: biochemical, Pseudomonas putida; details: apparent, co-substrate NADPH varied, aromatic substrate not stated, 50 mM HEPES pH 8.0, 30°C, varied: cofactor
[7] = substrate: O=C(O)c1ccc(Cl)cc1O; assay: purified protein; type: biochemical, Pseudomonas putida; details: apparent, NAD(P)H co-substrate (NADH in results, NADPH in methods), 50 mM HEPES pH 8.0, 30°C
[8] = substrate: O=C(O)c1ccc(O)cc1O; assay: purified protein; type: biochemical, Pseudomonas putida; details: apparent, NAD(P)H co-substrate (NADH in results, NADPH in methods), 50 mM HEPES pH 8.0, 30°C
[9] = substrate: O=C(O)c1cccc(O)c1O; assay: purified protein; type: biochemical, Pseudomonas putida; details: apparent, NAD(P)H co-substrate (NADH in results, NADPH in methods), 50 mM HEPES pH 8.0, 30°C

Km ([1]; NADPH co-substrate): 290 ± 67 µM
Molecule: O=C(O)c1cccc(-c2ccccc2)c1O [2H3PB]

Km ([1]; NADPH co-substrate): 320 ± 84 µM
Molecule: O=C(O)c1c(O)cccc1-c1ccccc1 [2H6PB]

Km ([1]; NADPH co-substrate): 100 ± 15 µM
Molecule: O=C(O)c1ccc2ccccc2c1O [1H2N]

Km ([1]; NADPH co-substrate): 110 ± 25 µM
Molecule: O=C(O)c1c(O)ccc2ccccc12 [2H1N]

Km ([1]; NADPH co-substrate): 82 ± 9.7 µM
Molecule: O=C(O)c1ccc(O)cc1O [2,4DHB]

Km ([1]; NADPH co-substrate): 48 ± 45 µM
Molecule: O=C(O)c1cc(O)ccc1O [GA]

Km ([1]; NADPH co-substrate): 67 ± 1.8 µM
Molecule: O=C(O)c1cccc(O)c1O [2,3DHB]

Km ([1]; NADPH co-substrate): 30 ± 34 µM
Molecule: O=C(O)c1ccccc1O [SA]

Continued, molecule first:

Molecule: NC(=O)C1=CN([C@@H]2O[C@H](COP(=O)(O)OP(=O)(O)OC[C@H]3O[C@@H](n4cnc5c(N)ncnc54)[C@H](O)[C@@H]3O)[C@@H](O)[C@H]2O)C=CC1 [NADH]
Km [2]: 27 ± 10 µM
Km ([1]; co-substrate NADH varied, aromatic substrate not stated): 170 ± 60 µM

Molecule: Oc1ccc2ccccc2c1O [1,2DHN]
Km [3]: 520 ± 180 µM
Km [4]: 480 ± 18 µM

Molecule: O=C(O)c1ccc(Cl)cc1O [4CSA]
Km ([1]; NADPH co-substrate): 120 ± 28 µM

Molecule: NC(=O)C1=CN([C@@H]2O[C@H](COP(=O)(O)OP(=O)(O)OC[C@H]3O[C@@H](n4cnc5c(N)ncnc54)[C@H](OP(=O)(O)O)[C@@H]3O)[C@@H](O)[C@H]2O)C=CC1 [NADPH]
Km ([1]; co-substrate NADPH varied, aromatic substrate not stated): 150 ± 37 µM

B1: NahG (salicylate 1-monooxygenase) (Pseudomonas putida) (protein)
chain: T2 sequence (P23262 2-434)
notes: full-length synthetic gene, C-terminal 6xHis, pET21a, E. coli BL21
Km [5]: 110 ± 30 µM
kcat [5]: 7 s⁻¹
kcat/Km [5]: 61700 M⁻¹ s⁻¹
Km [6]: 69 ± 17 µM
kcat [6]: 1.33 ± 0.583 s⁻¹
kcat/Km [6]: 20000 M⁻¹ s⁻¹
Km [7]: 51 ± 19 µM
kcat [7]: 0.917 ± 0.4 s⁻¹
kcat/Km [7]: 18300 M⁻¹ s⁻¹
Km [8]: 70 ± 15 µM
kcat [8]: 5.17 ± 0.467 s⁻¹
kcat/Km [8]: 73300 M⁻¹ s⁻¹
Km [9]: 120 ± 15 µM
kcat [9]: 5.5 ± 0.567 s⁻¹
kcat/Km [9]: 45000 M⁻¹ s⁻¹
